Numbered stars: 1 amine (or outer) side, 2 acyl side, 3 side chain; on linkers, the order of the positions; unused ones are H or OH. Bridge positions count the residues as written; N and C are the ends. Square brackets hold non-standard residues; d marks the D form. Ends that are not written are not given here. TATA = O=C(CC[*:1])N1CN(C(=O)CC[*:2])CN(C(=O)CC[*:3])C1; Trp(1-Me) = Cn1cc(C[C@H](N)C(=O)O)c2ccccc21; cisHyp = O=C(O)[C@@H]1C[C@H](O)CN1; Hyp = O=C(O)[C@@H]1C[C@@H](O)CN1; hArg = N=C(N)NCCCC[C@H](N)C(=O)O; tBuAla = CC(C)(C)C[C@H](N)C(=O)O; Cha = N[C@@H](CC1CCCCC1)C(=O)O; Agb = N=C(N)NCC[C@H](N)C(=O)O; Cba = N[C@@H](CC1CCC1)C(=O)O; Chg = N[C@H](C(=O)O)C1CCCCC1; Tle = CC(C)(C)[C@H](N)C(=O)O; NMeA = CN[C@@H](C)C(=O)O; Nle = CCCC[C@H](N)C(=O)O; Sar = CNCC(=O)O
Each binder was assayed against T1, Human NKp46 Fc tag (Acro Biosystems, NC1-H5257) (human, UniProt O76036 22-255) (assay: SPR Method 1 and/or 2).
T1 construct: bought; also called Fc-tagged human NKp46
Description: The SPR analysis was run at 25° C. and a flow rate of 50 μl/min with 60 seconds association and 200-400 seconds dissociation time. Data were corrected for DMSO excluded volume effects. All data were double-referenced for blank injections and reference surface using standard processing procedures and data processing and kinetic fitting were performed using Scrubber software, version 2.0c (BioLogic Software). Data were fitted using simple 1:1 binding model allowing for mass transport effects where appropriate.
For analysis of peptide binding, a Biacore 8k+ instrument was used with a CM5 chip (Cytiva). All experiments were carried out at 25° C. Anti-human IgG (Fc) antibody (Cytiva) was immobilized on all flow cells by standard amine coupling chemistry. The running buffer was HBS-N(Cytiva, 10 mM HEPES, 0.15 M NaCl, pH 7.4) and the flow rate was 10 μL/min. The carboxymethyl dextran surface was activated with a 1:1 ratio of 0.4 M 1-ethyl-3-(3-dimethylaminopropyl) carbodiimide hydrochloride (EDC)/0.1 M N-hydroxy succinimide (NHS) (Cytiva) for 420s. […] Residual activated groups were blocked with a 420 s injection of 1 M ethanolamine (pH 8.5). The final surface density was 3000-5000 RU. Fc-tagged human NKp46 was diluted to 0.1 μM in HBS-N and was captured on flow cell 2 only of the sensor chip at a flow rate of 10 μL/min to 500-1000 RU. The buffer was then changed to PBS-P+(Cytiva) supplemented with 2% DMSO. […] The flow rate was 50 μL/min with 60 s association and 400 s dissociation. Data were corrected for DMSO volume exclusion effects. All data were double-referenced against blank injections and reference surface response using standard processing procedures. Data processing and kinetic fitting was performed using Biacore Insight Evaluation Software with Extended Screening and Characterization Extension (Cytiva). Data were fitted using steady state affinity 1:1 binding model to determine KD. Data were fitted using kinetic 1:1 binding model to determine kinetic constants where appropriate.

T1 sequence (O76036 22-255 limits assumed): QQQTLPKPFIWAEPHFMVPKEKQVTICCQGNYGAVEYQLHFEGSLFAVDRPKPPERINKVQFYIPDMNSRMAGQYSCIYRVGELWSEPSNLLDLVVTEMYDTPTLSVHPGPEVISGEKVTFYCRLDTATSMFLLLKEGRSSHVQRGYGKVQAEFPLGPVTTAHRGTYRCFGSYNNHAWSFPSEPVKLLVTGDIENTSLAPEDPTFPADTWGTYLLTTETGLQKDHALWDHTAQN

| Binder | Kd [µM] |
| --- | --- |
| ACDLTTHNCQ[Trp(1-Me)]GICA-NH2 (linker 2-9-14 via TATA; N-terminus assumed; SMILES CC[C@H](C)[C@@H]1NC(=O)CNC(=O)[C@H](Cc2cn(C)c3ccccc23)NC(=O)[C@H](CCC(N)=O)NC(=O)[C@@H]2CSCCC(=O)N3CN(CN(C3)C(=O)CCSC[C@@H](C(=O)N[C@@H](C)C(N)=O)NC1=O)C(=O)CCSC[C@H](NC(=O)[C@H](C)N)C(=O)N[C@@H](CC(=O)O)C(=O)N[C@@H](CC(C)C)C(=O)N[C@@H]([C@@H](C)O)C(=O)N[C@@H]([C@@H](C)O)C(=O)N[C@@H](Cc1c[nH]cn1)C(=O)N[C@@H](CC(N)=O)C(=O)N2, scaffold TATA) [BCY18288] | 0.354 |
| ACDLTTHNCQWG[Tle]CA-NH2 (linker 2-9-14 via TATA, scaffold TATA) [BCY18289] | 0.572 |
| ACDLTTHNCQWG[tBuAla]CA-NH2 (linker 2-9-14 via TATA, scaffold TATA) [BCY18290] | 4.89 |
| ACDLTTHNCQWG[Chg]CA-NH2 (linker 2-9-14 via TATA, scaffold TATA) [BCY18291] | 2.85 |
| Ac-CNLQAPCMLTGKVC-NH2 (linker 1-7-14 via TATA (inferred), scaffold TATA) [BCY18293] | 3.38 |
| Ac-ACNLQAPCMLTGKVCA-NH2 (linker 2-8-15 via TATA (inferred), scaffold TATA) [BCY18294] | 3.26 |
| ACNLQAPCMLTGKVCA-NH2 (linker 2-8-15 via TATA; also: scaffold TATA, TATB or TBMT, scaffold TATA) [BCY15099] | 1.12 |
| ACNLQAPCMLTAKVCA-NH2 (linker 2-8-15 via TATA; also: scaffold TATA, TATB or TBMT, scaffold TATA) [BCY18303] | 2.75 |
| ACNLQAPCMLTGKACA-NH2 (linker 2-8-15 via TATA; also: scaffold TATA, TATB or TBMT, scaffold TATA) [BCY18305] | 0.907 |
| ACNLQAPCLLTGKVCA-NH2 (linker 2-8-15 via TATA; also: scaffold TATA, TATB or TBMT, scaffold TATA) [BCY18313] | 2.75 |
| ACNLQAPCMFTGKVCA-NH2 (linker 2-8-15 via TATA; also: scaffold TATA, TATB or TBMT, scaffold TATA) [BCY18317] | 2.08 |
| ACNLQAPCMLT[dA]KVCA-NH2 (linker 2-8-15 via TATA (inferred), scaffold TATA) [BCY18322] | 0.466 |
| ACNLQAPCMLTGRVCA-NH2 (linker 2-8-15 via TATA; also: scaffold TATA, TATB or TBMT, scaffold TATA) [BCY18323] | 2.34 |
| ACN[tBuAla]QAPCMLTGKVCA-NH2 (linker 2-8-15 via TATA, scaffold TATA) [BCY18307] | 2.11 |
| ACNLQA[Sar]CMLTGKVCA-NH2 (linker 2-8-15 via TATA; N-terminus assumed; SMILES CSCC[C@@H]1NC(=O)[C@@H]2CSCCC(=O)N3CN(CN(C3)C(=O)CCSC[C@@H](C(=O)N[C@@H](C)C(N)=O)NC(=O)[C@H](C(C)C)NC(=O)[C@H](CCCCN)NC(=O)CNC(=O)[C@H]([C@@H](C)O)NC(=O)[C@H](CC(C)C)NC1=O)C(=O)CCSC[C@H](NC(=O)[C@H](C)N)C(=O)N[C@@H](CC(N)=O)C(=O)N[C@@H](CC(C)C)C(=O)N[C@@H](CCC(N)=O)C(=O)N[C@@H](C)C(=O)N(C)CC(=O)N2, scaffold TATA) [BCY18309] | 2.57 |
| ACNLQA[cisHyp]CMLTGKVCA-NH2 (linker 2-8-15 via TATA, scaffold TATA) [BCY18310] | 0.802 |
| ACNLQA[Hyp]CMLTGKVCA-NH2 (linker 2-8-15 via TATA, scaffold TATA) [BCY18311] | 0.795 |
| ACNLQA[NMeA]CMLTGKVCA-NH2 (linker 2-8-15 via TATA, scaffold TATA) [BCY18312] | 1.81 |
| ACNLQAPC[Nle]LTGKVCA-NH2 (linker 2-8-15 via TATA, scaffold TATA) [BCY18314] | 3.15 |
| ACNLQAPC[Cba]LTGKVCA-NH2 (linker 2-8-15 via TATA; N-terminus assumed; SMILES CC(C)C[C@@H]1NC(=O)[C@H](CC(N)=O)NC(=O)[C@@H](NC(=O)[C@H](C)N)CSCCC(=O)N2CN3CN(C2)C(=O)CCSC[C@H](NC(=O)[C@@H]2CCCN2C(=O)[C@H](C)NC(=O)[C@H](CCC(N)=O)NC1=O)C(=O)N[C@@H](CC1CCC1)C(=O)N[C@@H](CC(C)C)C(=O)N[C@@H]([C@@H](C)O)C(=O)NCC(=O)N[C@@H](CCCCN)C(=O)N[C@@H](C(C)C)C(=O)N[C@H](C(=O)N[C@@H](C)C(N)=O)CSCCC3=O, scaffold TATA) [BCY18315] | 0.878 |
| ACNLQAPCM[Cba]TGKVCA-NH2 (linker 2-8-15 via TATA, scaffold TATA) [BCY18319] | 0.991 |
| ACNLQAPCM[tBuAla]TGKVCA-NH2 (linker 2-8-15 via TATA, scaffold TATA) [BCY18320] | 0.622 |
| ACNLQAPCM[Cha]TGKVCA-NH2 (linker 2-8-15 via TATA; also: Cha: filing contradicts itself on L or D, scaffold TATA) [BCY18321] | 0.548 |
| ACNLQAPCMLTG[Agb]VCA-NH2 (linker 2-8-15 via TATA; N-terminus assumed; SMILES CSCC[C@@H]1NC(=O)[C@@H]2CSCCC(=O)N3CN(CN(C3)C(=O)CCSC[C@@H](C(=O)N[C@@H](C)C(N)=O)NC(=O)[C@H](C(C)C)NC(=O)[C@H](CCNC(=N)N)NC(=O)CNC(=O)[C@H]([C@@H](C)O)NC(=O)[C@H](CC(C)C)NC1=O)C(=O)CCSC[C@H](NC(=O)[C@H](C)N)C(=O)N[C@@H](CC(N)=O)C(=O)N[C@@H](CC(C)C)C(=O)N[C@@H](CCC(N)=O)C(=O)N[C@@H](C)C(=O)N1CCC[C@H]1C(=O)N2, scaffold TATA) [BCY18324] | 1.5 |
| ACNLQAPCMLTGK[Tle]CA-NH2 (linker 2-8-15 via TATA, scaffold TATA) [BCY18325] | 0.854 |
| ACNLQAPCMLTGK[Chg]CA-NH2 (linker 2-8-15 via TATA; N-terminus assumed; SMILES CSCC[C@@H]1NC(=O)[C@@H]2CSCCC(=O)N3CN(CN(C3)C(=O)CCSC[C@@H](C(=O)N[C@@H](C)C(N)=O)NC(=O)[C@H](C3CCCCC3)NC(=O)[C@H](CCCCN)NC(=O)CNC(=O)[C@H]([C@@H](C)O)NC(=O)[C@H](CC(C)C)NC1=O)C(=O)CCSC[C@H](NC(=O)[C@H](C)N)C(=O)N[C@@H](CC(N)=O)C(=O)N[C@@H](CC(C)C)C(=O)N[C@@H](CCC(N)=O)C(=O)N[C@@H](C)C(=O)N1CCC[C@H]1C(=O)N2, scaffold TATA) [BCY18326] | 2.78 |
| ACNLQAPCMLTG[hArg]VCA-NH2 (linker 2-8-15 via TATA; N-terminus assumed; SMILES CSCC[C@@H]1NC(=O)[C@@H]2CSCCC(=O)N3CN(CN(C3)C(=O)CCSC[C@@H](C(=O)N[C@@H](C)C(N)=O)NC(=O)[C@H](C(C)C)NC(=O)[C@H](CCCCNC(=N)N)NC(=O)CNC(=O)[C@H]([C@@H](C)O)NC(=O)[C@H](CC(C)C)NC1=O)C(=O)CCSC[C@H](NC(=O)[C@H](C)N)C(=O)N[C@@H](CC(N)=O)C(=O)N[C@@H](CC(C)C)C(=O)N[C@@H](CCC(N)=O)C(=O)N[C@@H](C)C(=O)N1CCC[C@H]1C(=O)N2, scaffold TATA) [BCY18328] | 0.887 |
